Data reported in patent US20260117244A1, “INHIBITORY RNA FOR THE CONTROL OF PHYTOPATHOGENS” (priority 2021, published 2026).

Key:
[1] = system: grapevine powdery mildew E. necator; test: Vineyard field trials of topical dsRNA: powdery mildew disease incidence and disease severity (Kearney and Armstrong sites); format: in vivo, Erysiphe necator; settings: Armstrong site
Method: The tests were done at Kearney Agriculture Research and Extension Center, Parlier, CA (Fresno County) and Armstrong Plant Pathology Field Station at University of California, Davis, CA. Susceptible grapevine cultivars were tested—Sauvignon Blanc at Kearney and Chenin Blanc at Davis. In both cases, the Stihl backpack sprayer SR450 was used and sprayer calibration, and normalization was performed to ensure equal doses of treatment applied to each replicate. During the trial period, vines were irrigated by drip irrigation and the regular maintenance of weeding, herbicide and insecticide treatments were done by the Kearney or Davis site field staff. In early season, 2.0 gallons/5 replicates and in mid to late season 2.5 to 3.0 gallons/5 replicates were sprayed. All appropriate personal protective equipment (PPE) was used and required training was completed including pesticide application training and heat exhaustion training. A randomized block design was used with 5 replicates for each treatment. Two adjacent vines were used as one experimental unit and the area between two trunks (yellow box) was sprayed and assessed (FIG. 16).
The trial was conducted at Kearney Agricultural Research and Extension Center, Parlier, CA on blocks of the susceptible white wine variety Sauvignon Blanc. Total of 5 different gene targets from grapevine powdery mildew E. necator, EnCYP51 (SEQ ID NO:182), EnLIP1 (SEQ ID NO:183), EnICL2 (SEQ ID NO:186), EnMS (SEQ ID NO:188) and EnAPG9 (SEQ ID NO:208) were tested at this site by backpack spraying of the experimental units with dsRNA designed specifically against these target genes. The treatments were placed in a randomized block design with 5 replicates of each (dsRNA treatments 1-5), 5 replicates of Gold Standard (GS) and 5 replicates of untreated control (UT Control). Gold Standard refers to the pesticides normally used by growers to control powdery mildew: Sulfur and other chemical fungicides such as Rally, Quintec, and Luna. Between each treatment replicate, consisting of two vines, there was a spacer vine to avoid the spray drift from one treatment another.
FIG. 17 provides an overview of the treatment schedule at Kearney. A total of 4 treatments of dsRNA were performed between May and July, replacing the 4 final treatments of the GS. Data were collected at the times marked by the gray dots in FIG. 17. The monitoring of powdery mildew index data and manual scouting of disease in the field was used to adjust timing schedule per standard protocol (www2.ipm.ucanr.edu/weather/grape-powdery-mildew-risk-assessment-index/?src=redirect2refresh).
The total number of bunches per replicate (mean of 130) and the bunches with powdery mildew growth were counted and percent of infected bunches per replicate was calculated.
Disease severity was calculated by counting the number of infected berries compared to total berries in a bunch. 25 bunches from both sides of the canopy were assessed per replicate.
This trial was conducted at University of California Davis Plant Pathology Armstrong Facility on white wine variety Chenin Blanc. A total of 4 different gene targets from grapevine powdery mildew E. necator, EnLIP1 (Seq ID No:183), EnICL2 (Seq ID 186), EnMS (Seq ID No:188) and EnAPG9 (Seq ID No:208) were tested at this site by treating the vines with dsRNA designed against these target genes. A randomized block design with 5 replicates of each (treatments 1-5) and 5 replicates of untreated control (UT Control) was utilized. Spray protocols and spray volumes were the same as done by Akif Eskalen's team as shown on this link (Elfar et al. 2021, ucanr.edu/sites/eskalenlab/files/355630.pdf) and in Table 10. Eskalen's lab performed 3rd party commercial fungicide trials for the industry.
In this field trial, a total of 3 sprays of dsRNA were performed between May and early June (FIG. 21). For the dsRNA treatments, no parallel chemical treatments were performed prior to the dsRNA treatments. […]

E. necator = test: SIGS, E. necator spore production on V. vinifera (whole plant and leaf disc assays); format: in vivo, Erysiphe necator; settings: for visual powdery mildew coverage and density: V. vinifera leaves, 9 days post infection, vs buffer alone
From the text: Spore suspension concentrations were normalized to the input tissue weight (g) before being normalized to the control.
Spore suspension concentrations were normalized to the input tissue weight (g) before being normalized to the control. CYP51 is included as a positive control gene required for growth. Error bars±SEM. *p<0.05 by Student's T-Test (unpaired, 2-tailed) compared to control.
With SIGS methods optimized and gene targets identified, we sought to translate these methods and targets to grape powdery mildew (FIG. 2). New long dsRNAs were designed for each target tested as there is significant sequence divergence between G. orontii MGH1 and E. necator c. First, procedures were optimized for the grapevine system by silencing CYP51. Spore production was reduced by 62% and 45% in grapevine whole plant and leaf disc assays, respectively when treated with long dsRNA against the same region of CYP51 as dsRNA-1 against G. orontii MGH1 CYP51 (FIG. 2; FIG. 7, panel a). […] We tested SIGS against the effective targets including AATF in the grapevine system, as we were interested in ascertaining whether they would show a statistically significant difference in grape powdery mildew spore production. […] The average reduction of powdery mildew spore production for SIGS against CYP51 and AATF was greater in E. necator compared to G. orontii (FIG. 4 and FIG. 7). One notable difference is G. orontii has 2 copies each of CYP51 and AATF while E. necator has 1 copy of each of these genes. SIGS against the other effective targets also were effective in reducing powdery mildew of grapevine (FIG. 7).
As the full G. orontii MGH1 OEC60/OEC61 is conserved in other powdery mildews (Table 6) and has the potential to interact with both TCP13 and TCP14, we tested whether findings in the G. orontii MGH1-Arabidopsis pathosystem can translate to an agriculturally important pathosystem, powdery mildew of grapevine. To do so, we identified an OEC60/OEC61 homolog in E. necator c (Jones et al., 2014) and designed a long dsRNA to target this gene in the same region effective for G. orontii. Targeting of OEC60/OEC61 in Erysiphe necator by SIGS reduces grape powdery mildew production on V. vinifera leaves to 71% of control treated plants (FIG. 12), similar to the reduction seen with the Arabidopsis powdery mildew (FIG. 10, panel d).

B1: EnMS: dsRNA against E. necator Malate synthase (target SEQ ID NO:188) (nucleic acid)
chain: TACAAGCTCAGATCAGACCGAAAACTTCCAACGCTTATTATAAGACCTCGTGGCTGGCACTTAGATGAGAAACATGTAACTATTGAAGGAGAGCCAATATCCGGCTCTCTATTCGATTTTGGACTATACTTTTTTCACAATGCCAAAGAACTGATAAAACGAGACTTAGGGCCCTACTTTTATCTTCCAAAGATGGAATCTTATCTAGAAGCCCGTCTTTGGAATGATGTCTTCAACCTAGCACAGGACTATATTGGTATTTCTCGTGGAACTATACGCGCTACAGTTCTAATTGAAACCATACTTGCTGCATTTGAAATG
modifications: misc_feature 1..321: note = Inhibitory double stranded RNA; listed as RNA
What does the source list for B1?
powdery mildew disease incidence ([1]; Chenin Blanc, 3 weeks after end of treatments (June 23), untreated ~80%): ~20%; mean disease severity (percent of berries with powdery mildew per bunch) ([1]; June 28, almost 4 weeks post dsRNA treatment, untreated 12%): 2%

B2: EnCYP51: long dsRNA against E. necator CYP51 (target SEQ ID NO:182) (nucleic acid)
chain: TGTCAACGCCGAAGAGATTTACACTAATTTAACAACTCCGGTCTTTGGAAGAGATGTTGTATTTGATTGTCCAAATTCCAAACTCATGGAACAAAAAAAGTTTATGAAAACGGCTCTTACCATTGAAGCGTTCCATTCCTATGTAACAATAATACAAAATGAAGTAGAGGCATATATAAACAATTGCGTTAGCTTTCAGGGTGAGAGTGGCACAGTAAACATCTCAAAAGTTATGGCGGAAATCACTA
modifications: misc_feature 1..248: note = Inhibitory double stranded RNA; listed as RNA
Which “visual powdery mildew coverage and density” value (E. necator) does the source give for B2 here?
The value was “Less powdery mildew density”.

What about the “visual powdery mildew coverage and density” value (E. necator; listed as E. necator CYP51 dsRNA) of the same molecule?
The value was “less powdery mildew coverage and density”.

And the “reduction in spore production” value (E. necator; grapevine leaf disc assay, long dsRNA)?
The value was 45%.

And the “reduction in spore production” value (E. necator; grapevine whole plant assay, long dsRNA)?
The value was 62%.

B3: E. necator OEC60/OEC61 dsRNA: long dsRNA against E. necator homolog of OEC60/OEC61 (target SEQ ID NO:199) (nucleic acid)
chain: CTGCTACTAGCTTTCATGGTATGAAACTCATTATTGGTGTTTTTATTGGTGAAACTGGTTGCTCTGGCGCTAAAGAGCAGGTGAACCACATCGTTAAATGGGGTAAATGGGATTTGGTAGAACTCATTGTGATCGGGAATGAGGCTCTGTTTAGTGGTCATGCGTCACCCGAAGAGTTAGCCGAATTTATTACCTCGACTAAAATCACCCTCAGATCAGC
modifications: misc_feature 1..220: note = Inhibitory double stranded RNA; listed as RNA
Which results are given for B3?
effect on grapevine powdery mildew growth and reproduction / spore production (E. necator; E. necator on V. vinifera, SIGS): reduces spore production; grape powdery mildew spore production relative to control treated plants (E. necator; V. vinifera leaf discs (FIG. 12), long dsRNA): 71 % of control

B4: E. necator AATF dsRNA: long dsRNA against E. necator AATF (target SEQ ID NO:197) (nucleic acid)
chain: TGATAGCGATCATGATAGATGCGACTCAAATTTTAGTAATAGGAATGACAAAGAGATTATTAAACGGTCTGAAATTCAAAGATTTATGGAAGAAGATCAAAAAGCAATATTATCAACTTTATCTCAAGCAGCAAAGGTAGATGCAGAAAAGGGAAGGGCAATTAAGTCACAACAAATGAGATTCGATTCTCTTCTAAATACGCGAATGGAGCTGCAGAAAGCTCTGATAGCAGTTAATTCTCTTACTACCTTTCAAGATGATAATTCTATTTTCTCCAAGGATAAGCCATACGAAGCAGC
modifications: misc_feature 1..300: note = Inhibitory double stranded RNA; listed as RNA
How did the “average reduction in spore production” value (E. necator; long dsRNA, assay format not stated (FIG. 7)) turn out when B4 was run?
Its value is 53%.
